According to patent US20170088624A1 (Janssen / Centocor, published 2017):

Key:
[1] = target: T1, Full length human CD40 (huCD40) on cells (human, UniProt P25942 21-277); test: flow cytometry, HEK-Blue CD40L cells
T1 construct: CD40 on human mature DCs, human B cells, Raji cells and HEK-Blue CD40L cells (stably expressing human CD40); also called TNFRSF5

[2] = target: T1, Full length human CD40 (huCD40) on cells; test: cell-based or functional assay
cyno CD40 (SPR analyte) = target: T2, cyno CD40 (SPR analyte) (Macaca fascicularis (cynomolgus), UniProt P25942 21-193 (human entry), limits assumed); test: SPR ProteOn XPR36, mAb captured by anti-human IgG Fc, cyno CD40 as analyte, 25 C
T2 construct: also called cCD40-ECD
T2 chain: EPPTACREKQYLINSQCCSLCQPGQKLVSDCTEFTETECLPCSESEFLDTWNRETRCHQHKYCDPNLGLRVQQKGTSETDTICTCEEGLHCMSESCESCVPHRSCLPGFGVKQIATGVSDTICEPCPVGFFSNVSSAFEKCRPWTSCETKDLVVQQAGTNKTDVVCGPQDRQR
Protocol: (§1) Affinity measurements were performed using Surface Plasmon Resonance (SPR) using a ProteOn XPR36 system (BioRad). […] Approximately 5000 RU (response units) of mAbs were immobilized. The kinetic experiments were performed at 25° C. in running buffer (DPBS+0.01% P20+100 μg/ml BSA). To perform kinetic experiments, 200 RU of mAbs were captured followed by injections of analytes (human or cyno CD40) at 5 concentrations (in a 4-fold serial dilution). The association phase was monitored for 3 minutes at 50 μL/min, then followed by 15 minutes of buffer flow (dissociation phase). The chip surface was regenerated with two 18 second pulses of 100 mM H₃PO₄ (Sigma, Cat#7961) at 100 μL/min.
(§2) The collected data were processed using ProteOn Manager software. First, the data was corrected for background using inter-spots. Then, double reference subtraction of the data was performed by using the buffer injection for analyte injections. The kinetic analysis of the data was performed using a Langmuir 1:1 binding model. The result for each mAb was reported in the format of Ka (On-rate), Kd (Off-rate) and KD (equilibrium dissociation constant).

[3] = target: T3, Macaca fascicularis (cyno) CD40 (cCD40) on cells (Macaca fascicularis (cynomolgus), UniProt P25942 21-277 (human entry)); test: flow cytometry, cyno mature DCs
T3 construct: CD40 on cyno mature DCs
T3 chain: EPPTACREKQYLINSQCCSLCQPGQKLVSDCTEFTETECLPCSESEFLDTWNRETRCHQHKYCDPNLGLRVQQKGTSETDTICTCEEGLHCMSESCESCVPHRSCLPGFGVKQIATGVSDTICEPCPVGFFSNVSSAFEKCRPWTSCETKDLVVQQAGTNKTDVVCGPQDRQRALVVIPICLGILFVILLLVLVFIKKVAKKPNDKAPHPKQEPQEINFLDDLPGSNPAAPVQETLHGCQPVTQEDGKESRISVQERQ
Protocol: (§3) Human monocytes were isolated from either frozen/fresh PBMC using CD14 negative isolation kit per manufacturer's protocol (MACS Miltenyi). Cyno monocytes were isolated from fresh PBMC using CD14 positive isolation kit per manufacturer's protocol (MACS Miltenyi). To generate DCs, monocytes were cultured for 5 days in complete media RPMI (Invitrogen) in the presence of 100 ng/ml human GM-CSF and human IL-4 (Peprotech) and media was replenished every 2 days. On day 5, DCs were stimulated with 100 ng/ml LPS (Sigma) for 24 hours. Cells were then stained with each of the tested CD40 antibody at different concentration in flow cytometry buffer (PBS+1% FBS; BD Bioscience) in 100 μl volume for 30 minutes on ice followed with two washes with flow buffer. Cells were then stained for additional 30 minutes on ice with APC-conjugated anti human IgG (Jackson ImmunoResearch) at the recommended dilution 1:100 and washed twice with flow buffer. Cells were analyzed for percent positive and Mean Fluorescence Intensity (MFI) to determine the antibody binding using Fortessa (BD Bioscience).
(§4) The experiments were conducted using assays described above. 20 antibodies were characterized further based on their binding to human DCs, cyno DCs, Raji cells and HEK-Blue™ CD40L cells.

[4] = target: T1, Full length human CD40 (huCD40) on cells; test: flow cytometry, Raji cells
[5] = target: T1, Full length human CD40 (huCD40) on cells; test: flow cytometry, human mature DCs
Protocol: as §3, §4

human CD40 (SPR analyte) = target: T4, human CD40 (SPR analyte) (human, UniProt P25942 21-193); test: SPR ProteOn XPR36, mAb captured by anti-human IgG Fc, CD40 as analyte, 25 C
T4 construct: also called huCD40-ECD
Protocol: as §1, §2
The parameters reported in this table were obtained from a 1:1 Langmuir binding model for all samples. Affinity, KD=kd/ka.

[6] = target: T1, Full length human CD40 (huCD40) on cells; test: cell-based or functional assay; remark: listed apart in the source

| Binder | EC50 [1] [ng/mL] | B cells EC50, CD23 surface expression, with cross-linker [2] [ng/mL] | B cells EC50, CD80 surface expression, with cross-linker [2] [ng/mL] | B cells EC50, CD83 surface expression, with cross-linker [2] [ng/mL] | B cells EC50, CD86 surface expression, with cross-linker [2] [ng/mL] | B cells EC50, HLA-DR surface expression, with cross-linker [2] [ng/mL] | Kd (cyno CD40 (SPR analyte)) [nM] | koff (cyno CD40 (SPR analyte)) [s⁻¹] | kon (cyno CD40 (SPR analyte)) [M⁻¹ s⁻¹] | EC50 [3] [ng/mL] | EC50 [4] [ng/mL] | EC50 [5] [ng/mL] | Kd (human CD40 (SPR analyte)) [nM] | koff (human CD40 (SPR analyte)) [s⁻¹] | kon (human CD40 (SPR analyte)) [M⁻¹ s⁻¹] | DC EC50, CD80 surface expression, with cross-linker [6] [ng/mL] | DC EC50, CD83 surface expression, with cross-linker [6] [ng/mL] | DC EC50, CD86 surface expression, with cross-linker [6] [ng/mL] | DC EC50, HLA-DR surface expression, with cross-linker [6] [ng/mL] |
| --- | --- | --- | --- | --- | --- | --- | --- | --- | --- | --- | --- | --- | --- | --- | --- | --- | --- | --- | --- |
| C40M59 (antibody, human IgG1, kappa, V domains shown, Full-length IgG1/kappa; from phage display) VH: QVQLVQSGAEVKKPGSSVKVSCKASGGTFSSYWISWVRQAPGQGLEWMGYIIPISGTARYAQKFQGRVTITADESTSTAYMELSSLRSEDTAVYYCAREPGYSSGLSVDYFDYWGQGTLVTVSS VL: not shown | 354 | 1240 | 10.6 | 10.8 | 15.4 | 4.84 | 6.92 | 0.000995 | 144000 | 74 | 125 | 826 | 9 | 0.00106 | 118000 | 0.342 | 276 | 9.79 | 53.6 |
| C40M66 (antibody, human IgG1, kappa, V domains shown, Full-length IgG1/kappa; from phage display) VH: QVQLVQSGAEVKKPGSSVKVSCKASGGTFSSYAISWVRQAPGQGLEWMGGIIPIFGTANYAQKFQGRVTITADESTSTAYMELSSLRSEDTAVYYCARVRYSAWYRDSLDYWGQGTLVTVSS VL: not shown | 169 | 41.4 | 5.11 | 1.82 | 2.46 | 1.08 | 1.64 | 0.000577 | 352000 | 48.3 | 73 | 202 | 3.05 | 0.00116 | 378000 | 158 | 175 | 423 | 39.4 |
| C40M67 (antibody, human IgG1, kappa, V domains shown, Full-length IgG1/kappa; from phage display) VH: EVQLLESGGGLVQPGGSLRLSCAASGFTFSDYAMNWVRQAPGKGLEWVSGIKSGGSSKYYADSVKGRFTISRDNSKNTLYLQMNSLRAEDTAVYYCAKHVDFYRALDYWGQGTLVTVSS VL: EIVLTQSPGTLSLSPGERATLSCRASQSVKNSSLAWYQQKPGQAPRLLIYTASSRATGIPDRFSGSGSGTDFTLTISRLEPEDFAVYYCQQSSAPPWTFGQGTKVEIKR | 550 | 4.17 | 3.32 | 1.46 | 2.26 | 0.792 | 1.85 | 0.000341 | 184000 | 327 | 247 | 766 | 1.91 | 0.00031 | 163000 | 49.9 | 127 | 202 | 50.7 |
| C40M12 (antibody, human IgG1, lambda, V domains shown, Full-length IgG1/lambda; from OmniRat (OMT)) VH: EVQLVESGGGLVQPGGSLRLSCAASGFTFGSYAMSWVRQAPGKGLEWVSVISDSGGRTYYADSVKGRFTISRDYSKNTLYLQMNSLRAEDTAVYYCAKEGGDYYYYGMDVWGQGTTVTVSS VL: SYELTQPPSVSVSPGQTASIICSGDKLGDKYVCWYQQKPGQSPVVVIYHDNKRPSGIPERFSGSNSGNTATLTISGTQAMDEADYYCQVWDSSTVVFGGGTKLTVLG | 112 | 125000 | 6.23 | 2.84 | 2.28 | 4.27 | 0.243 | 0.000441 | 1.81e+06 | 47.4 | 29.9 | 298 | 0.136 | 0.000176 | 1.3e+06 | 0.00393 | 332 | 502 | 301 |
| C40M17 (antibody, human IgG1, lambda, V domains shown, Full-length IgG1/lambda; from OmniRat (OMT)) VH: EVQLVESGGGLVQPGGSLRLSCAASGFTFSSYAMSWVRQAPGRGLEWVSTINNSGGGTYYADSVKGRFTISRDNSKNTLYLHMNSLRAEDTAVYYCAKEGGKYYYYAMDVWGQGTTVTVSS VL: not shown | 75.1 | 1.95 | 0.879 | 0.838 | 4.57 | 1.57 | 0.0368 | 0.000157 | 4.27e+06 | 53.7 | 73.9 | 127 | 0.0294 | 8.06e-05 | 2.74e+06 | 36 | 306 | 33 | – |
